Experimental data taken from PMC4706430.

Target: Elastase (human neutrophil elastase) (human) (UniProt P08246)
Sequence (P08246 30-267): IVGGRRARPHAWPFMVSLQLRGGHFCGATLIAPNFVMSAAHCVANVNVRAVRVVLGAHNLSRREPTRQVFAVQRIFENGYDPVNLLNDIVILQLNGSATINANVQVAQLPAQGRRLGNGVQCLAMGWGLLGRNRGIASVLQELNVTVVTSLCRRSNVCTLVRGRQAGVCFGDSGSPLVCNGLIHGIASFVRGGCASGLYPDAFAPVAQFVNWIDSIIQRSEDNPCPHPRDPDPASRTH

cleavage of TFPI (1 μg) by elastase (0.8 μg/mL) with Boophilin 0-3 μM, SDS-PAGE (Fig 4D): 20%
Substance: Boophilin (natural protein)
